Data on 1 molecule can be found in PMC8975821, “TOX4 facilitates promoter-proximal pausing and C-terminal domain dephosphorylation of RNA polymerase II in human cells” (Communications Biology, 2022).

The target in this assay is T1, 3× Flag-tagged TOX4 (UniProt O94842 1-621).
T1 construct: TOX4, cDNA cloned into pFASTBAC.1; Also used as the parent (on) of the region row from the co-IP with TOX4 fragments, whose own constructs are not described; also called 3× Flag-TOX4; source: High Five cells infected with baculovirus, purified (anti-Flag M2 magnetic beads, eluted with 3× Flag peptide); also purified from High Five cells as the TOX4-PP1α complex
T1 sequence (looked up): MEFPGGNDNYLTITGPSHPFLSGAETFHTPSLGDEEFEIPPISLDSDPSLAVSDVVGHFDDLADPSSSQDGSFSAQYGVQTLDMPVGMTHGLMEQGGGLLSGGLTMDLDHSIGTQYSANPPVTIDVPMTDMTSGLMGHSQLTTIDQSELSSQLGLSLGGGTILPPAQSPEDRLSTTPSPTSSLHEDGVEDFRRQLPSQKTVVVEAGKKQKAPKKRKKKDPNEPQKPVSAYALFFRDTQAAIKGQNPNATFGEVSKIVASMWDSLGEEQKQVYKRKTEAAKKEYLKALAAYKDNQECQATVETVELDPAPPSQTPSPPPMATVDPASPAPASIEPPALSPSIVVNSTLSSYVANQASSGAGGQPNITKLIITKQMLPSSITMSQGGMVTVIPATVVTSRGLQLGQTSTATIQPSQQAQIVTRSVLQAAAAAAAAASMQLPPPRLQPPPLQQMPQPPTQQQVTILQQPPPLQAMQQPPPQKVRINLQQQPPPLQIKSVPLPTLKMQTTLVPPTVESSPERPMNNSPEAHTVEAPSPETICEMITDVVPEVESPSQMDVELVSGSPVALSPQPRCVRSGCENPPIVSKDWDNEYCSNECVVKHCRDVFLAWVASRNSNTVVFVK
Briefly: co-IP; in vitro binding assay of individually purified TOX4 and PP1α, β or γ; PP1 co-immunoprecipitated with TOX4; Western blot, quantified by ImageJ. The conditions noted are these: both partners purified. A general note: Immunoblotting shows a protein as a band on a membrane.

B1: His-tagged PP1β (enzyme, UniProt P62140 1-327, looked up)
chain: MADGELNVDSLITRLLEVRGCRPGKIVQMTEAEVRGLCIKSREIFLSQPILLELEAPLKICGDIHGQYTDLLRLFEYGGFPPEANYLFLGDYVDRGKQSLETICLLLAYKIKYPENFFLLRGNHECASINRIYGFYDECKRRFNIKLWKTFTDCFNCLPIAAIVDEKIFCCHGGLSPDLQSMEQIRRIMRPTDVPDTGLLCDLLWSDPDKDVQGWGENDRGVSFTFGADVVSKFLNRHDLDLICRAHQVVEDGYEFFAKRQLVTLFSAPNYCGEFDNAGGMMSVDETLMCSFQILKPSEKKAKYQYGGLNSGRPVTPPRTANPPKKR
notes: PP1β, catalytic subunit of protein phosphatase 1 beta; cDNA cloned into pFASTBAC.1; also called His-PP1β; source: High Five cells infected with baculovirus, purified (HisPur Ni-NTA magnetic beads, imidazole elution)
For B1, the binding result is listed as “binds”.
